Laboratory results published in patent US20230250154A1 (CYTONICS, published 2023).
Values belong to the binder of their own block, whether it stands above or below them.

Tests used:
Experiment in all cases: cell-based or functional assay
Cathepsin G = biological target: T1, Cathepsin G (UniProt P08311 21-244)
T1 sequence (looked up): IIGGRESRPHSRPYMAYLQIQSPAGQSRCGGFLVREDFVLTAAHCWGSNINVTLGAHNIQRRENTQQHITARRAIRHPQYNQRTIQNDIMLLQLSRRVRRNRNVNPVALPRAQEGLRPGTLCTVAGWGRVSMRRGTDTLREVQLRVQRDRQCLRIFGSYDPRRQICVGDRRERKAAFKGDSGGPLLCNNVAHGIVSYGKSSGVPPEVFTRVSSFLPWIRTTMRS

Elastase = biological target: Elastase
MMP8 = MMP8 (human, UniProt P22894 101-467, limits assumed)
MMP9 = MMP9 (human, UniProt P14780 107-707, limits assumed)
MMP1 = biological target: T2, MMP1 (human, UniProt P03956 100-469, limits assumed)
T2 sequence (looked up): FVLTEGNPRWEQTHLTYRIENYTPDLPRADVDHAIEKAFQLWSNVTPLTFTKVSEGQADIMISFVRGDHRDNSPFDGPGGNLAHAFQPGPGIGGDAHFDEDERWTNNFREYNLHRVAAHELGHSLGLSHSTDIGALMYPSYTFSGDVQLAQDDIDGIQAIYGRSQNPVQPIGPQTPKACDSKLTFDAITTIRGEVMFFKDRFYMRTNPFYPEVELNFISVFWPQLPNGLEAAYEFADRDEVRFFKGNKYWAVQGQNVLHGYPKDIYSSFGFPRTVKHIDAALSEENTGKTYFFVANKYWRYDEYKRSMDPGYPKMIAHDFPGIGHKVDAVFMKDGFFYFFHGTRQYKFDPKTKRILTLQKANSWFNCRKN

MMP2 = biological target: T3, MMP2 (human, UniProt P08253 110-660, limits assumed)
T3 sequence (looked up): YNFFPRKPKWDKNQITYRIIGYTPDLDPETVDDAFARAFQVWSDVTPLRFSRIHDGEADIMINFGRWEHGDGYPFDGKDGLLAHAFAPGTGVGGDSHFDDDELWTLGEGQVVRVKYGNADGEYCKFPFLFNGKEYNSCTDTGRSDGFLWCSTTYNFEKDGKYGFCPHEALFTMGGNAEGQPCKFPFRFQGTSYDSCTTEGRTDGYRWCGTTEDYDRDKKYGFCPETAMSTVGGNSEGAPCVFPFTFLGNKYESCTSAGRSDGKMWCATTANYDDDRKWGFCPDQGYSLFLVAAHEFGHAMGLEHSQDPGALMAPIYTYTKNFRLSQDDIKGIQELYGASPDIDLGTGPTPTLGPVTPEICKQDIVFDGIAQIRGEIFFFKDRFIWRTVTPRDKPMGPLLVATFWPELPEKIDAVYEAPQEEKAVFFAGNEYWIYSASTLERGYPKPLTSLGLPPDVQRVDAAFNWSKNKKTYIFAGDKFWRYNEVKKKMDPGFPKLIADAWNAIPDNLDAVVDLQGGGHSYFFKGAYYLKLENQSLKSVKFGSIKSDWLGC

MMP12 = MMP12 (human, UniProt P39900 106-470, limits assumed)
MMP3 = MMP3 (human, UniProt P08254 100-477, limits assumed)
MMP13 = MMP13 (human, UniProt P45452 104-471, limits assumed)
ADAMTS4 = biological target: T4, ADAMTS4 (human, UniProt O75173 213-685, limits assumed)
T4 sequence (looked up): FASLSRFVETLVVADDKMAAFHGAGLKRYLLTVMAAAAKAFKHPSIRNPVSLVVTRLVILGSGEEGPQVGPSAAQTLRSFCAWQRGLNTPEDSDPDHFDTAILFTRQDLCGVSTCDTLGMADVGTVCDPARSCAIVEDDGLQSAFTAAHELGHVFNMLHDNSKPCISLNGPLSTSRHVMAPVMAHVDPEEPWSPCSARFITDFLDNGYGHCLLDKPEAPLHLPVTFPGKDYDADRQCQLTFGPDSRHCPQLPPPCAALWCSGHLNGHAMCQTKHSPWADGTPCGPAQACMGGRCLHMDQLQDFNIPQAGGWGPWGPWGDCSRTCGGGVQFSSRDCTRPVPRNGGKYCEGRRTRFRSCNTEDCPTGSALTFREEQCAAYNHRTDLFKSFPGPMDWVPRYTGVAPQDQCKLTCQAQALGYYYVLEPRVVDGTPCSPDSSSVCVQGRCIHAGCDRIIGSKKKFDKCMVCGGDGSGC

ADAMTS5 = biological target: T5, ADAMTS5 (human, UniProt Q9UNA0 262-622, limits assumed)
T5 sequence (looked up): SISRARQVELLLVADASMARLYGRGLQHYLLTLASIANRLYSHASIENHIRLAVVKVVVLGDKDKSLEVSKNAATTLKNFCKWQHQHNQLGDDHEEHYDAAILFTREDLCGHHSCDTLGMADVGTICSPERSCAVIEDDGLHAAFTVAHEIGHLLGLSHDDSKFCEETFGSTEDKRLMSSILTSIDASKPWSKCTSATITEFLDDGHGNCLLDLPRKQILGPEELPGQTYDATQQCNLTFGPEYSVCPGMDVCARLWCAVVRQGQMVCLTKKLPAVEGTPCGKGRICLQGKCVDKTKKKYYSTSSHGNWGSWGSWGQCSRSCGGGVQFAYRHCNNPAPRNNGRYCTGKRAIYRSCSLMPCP

Chain of MMP9 (P14780 107-707 limits assumed): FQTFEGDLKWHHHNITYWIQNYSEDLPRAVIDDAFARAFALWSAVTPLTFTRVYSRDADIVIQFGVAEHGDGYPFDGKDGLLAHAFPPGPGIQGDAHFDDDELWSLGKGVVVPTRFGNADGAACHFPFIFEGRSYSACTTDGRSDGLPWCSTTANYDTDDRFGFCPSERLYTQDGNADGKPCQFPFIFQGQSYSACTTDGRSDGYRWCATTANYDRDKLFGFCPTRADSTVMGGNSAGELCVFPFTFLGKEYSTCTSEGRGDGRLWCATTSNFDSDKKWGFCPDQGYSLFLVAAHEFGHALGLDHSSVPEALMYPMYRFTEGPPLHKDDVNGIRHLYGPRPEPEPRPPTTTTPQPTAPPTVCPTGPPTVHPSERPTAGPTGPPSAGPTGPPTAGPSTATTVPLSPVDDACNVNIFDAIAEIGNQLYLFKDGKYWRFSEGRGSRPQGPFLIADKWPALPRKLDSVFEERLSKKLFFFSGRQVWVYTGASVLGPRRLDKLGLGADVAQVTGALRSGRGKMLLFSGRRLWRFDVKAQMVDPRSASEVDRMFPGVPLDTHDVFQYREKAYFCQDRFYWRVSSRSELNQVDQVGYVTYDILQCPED
Chain of MMP8 (P22894 101-467 limits assumed): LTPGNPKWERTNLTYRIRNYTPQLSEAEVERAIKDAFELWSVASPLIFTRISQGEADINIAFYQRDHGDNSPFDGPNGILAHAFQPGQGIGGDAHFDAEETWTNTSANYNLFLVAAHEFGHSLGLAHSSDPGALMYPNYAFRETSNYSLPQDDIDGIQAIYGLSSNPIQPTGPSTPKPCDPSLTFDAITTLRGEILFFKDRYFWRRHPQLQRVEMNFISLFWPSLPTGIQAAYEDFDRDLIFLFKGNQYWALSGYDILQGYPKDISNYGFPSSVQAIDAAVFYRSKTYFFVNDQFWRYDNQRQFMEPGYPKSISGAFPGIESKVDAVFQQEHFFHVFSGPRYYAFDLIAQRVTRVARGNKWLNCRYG
Chain of MMP12 (P39900 106-470 limits assumed): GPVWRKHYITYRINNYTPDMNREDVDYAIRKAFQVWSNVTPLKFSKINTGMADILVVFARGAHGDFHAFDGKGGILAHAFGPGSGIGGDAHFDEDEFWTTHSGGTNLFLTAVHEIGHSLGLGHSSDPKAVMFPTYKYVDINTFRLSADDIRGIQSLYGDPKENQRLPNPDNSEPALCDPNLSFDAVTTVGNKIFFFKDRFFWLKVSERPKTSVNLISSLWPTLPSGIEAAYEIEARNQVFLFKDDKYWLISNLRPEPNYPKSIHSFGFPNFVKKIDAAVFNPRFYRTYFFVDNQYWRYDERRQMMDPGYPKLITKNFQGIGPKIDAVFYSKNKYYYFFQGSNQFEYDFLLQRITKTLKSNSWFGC
Chain of MMP3 (P08254 100-477 limits assumed): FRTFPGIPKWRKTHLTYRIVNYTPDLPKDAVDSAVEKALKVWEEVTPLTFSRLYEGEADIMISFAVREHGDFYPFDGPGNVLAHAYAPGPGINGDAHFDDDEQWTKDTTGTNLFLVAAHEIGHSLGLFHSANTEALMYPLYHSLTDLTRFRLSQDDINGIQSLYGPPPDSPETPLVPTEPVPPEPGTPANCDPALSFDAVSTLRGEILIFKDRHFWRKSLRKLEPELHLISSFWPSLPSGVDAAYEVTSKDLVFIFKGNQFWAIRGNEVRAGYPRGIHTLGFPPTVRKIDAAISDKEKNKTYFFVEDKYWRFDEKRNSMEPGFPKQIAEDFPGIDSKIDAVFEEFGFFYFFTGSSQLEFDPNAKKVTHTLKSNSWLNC

Protease Inhibition (% of WT) (Cathepsin G): 250 % of WT
Protease Inhibition (% of WT) (Elastase): 75 % of WT
Protease Inhibition (% of WT) (MMP8): 300 % of WT
Protease Inhibition (% of WT) (MMP9): 300 % of WT
Protease Inhibition (% of WT) (MMP1): 200 % of WT
Protease Inhibition (% of WT) (MMP2): 20 % of WT
Protease Inhibition (% of WT) (MMP12): 300 % of WT
B1: Variant A2M, bait region SEQ ID NO 125 (other)
chain: SVSGKPQYMVLVPSLLHTETTEKGCVLLSYLNETVTVSASLESVRGNRSLFTDLEAENDVLHCVAFAVPKSSSNEEVMFLTVQVKGPTQEFKKRTTVMVKNEDSLVFVQTDKSIYKPGQTVKFRVVSMDENFHPLNELIPLVYIQDPKGNRIAQWQSFQLEGGLKQFSFPLSSEPFQGSYKVVVQKKSGGRTEHPFTVEEFVLPKFEVQVTVPKIITILEEEMNVSVCGLYTYGKPVPGHVTVSICRKYSDASDCHGEDSQAFCEKFSGQLNSHGCFYQQVKTKVFQLKRKEYEMKLHTEAQIQEEGTVVELTGRQSSEITRTITKLSFVKVDSHFRQGIPFFGQVRLVDGKGVPIPNKVIFIRGNEANYYSNATTDEHGLVQFSINTTNVMGTSLTVRVNYKDRSPCYGYQWVSEEHEEAHHTAYLVFSPSKSFVHLEPMSHELPCGHTQTVQAHYILNGGTLLGLKKLSFYYLIMAKGGIVRTGTHGLLVKQEDMKGHFSISIPVKSDIAPVARLLIYAVLPTGDVIGDSAKYDVENCLANKVDLSFSPSQSLPASHAHLRVTAAPQSVCALRAVDQSVLLMKPDAELSASSVYNLLPEKDLTGFPGPLNDQDDEDCINRHNVYINGITYTPVSSTNEKDMYSFLEDMGLKAFTNSKIRKPKMCPQLEQYEMHGPSELEGRGSIPENFFGVEAIPMSIPTSEDLVVQIVEEPHTKLRKYFPETWIWDLVVVNSAGVAEVGVTVPDTITEWKAGAFCLSEDAGLGISSTASLRAFQPFFVELTMPYSVIRGEAFTLKATVLNYLPKCIRVSVQLEASPAFLAVPVEKEQAPHCICANGRQTVSWAVTPKSLGNVNFTVSAEALESQELCGTEVPSVPEHGRKDTVIKPLLVEPEGLEKETTFNSLLCPSGGEVSEELSLKLPPNVVEESARASVSVLGDILGSAMQNTQNLLQMPYGCGEQNMVLFAPNIYVLDYLNETQQLTPEIKSKAIGYLNTGYQRQLNYKHYDGSYSTFGERYGRNQGNTWLTAFVLKTFAQARAYIFIDEAHITQALIWLSQRQKDNGCFRSSGSLLNNAIKGGVEDEVTLSAYITIALLEIPLTVTHPVVRNALFCLESAWKTAQEGDHGSHVYTKALLAYAFALAGNQDKRKEVLKSLNEEAVKKDNSVHWERPQKPKAPVGHFYEPQAPSAEVEMTSYVLLAYLTAQPAPTSEDLTSATNIVKWITKQQNAQGGFSSTQDTVVALHALSKYGAATFTRTGKAAQVTIQSSGTFSSKFQVDNNNRLLLQQVSLPELPGEYSMKVTGEGCVYLQTSLKYNILPEKEEFPFALGVQTLPQTCDEPKAHTSFQISLSVSYTGSRSASNMAIVDVKMVSGFIPLKPTVKMLERSNHVSRTEVSSNHVLIYLDKVSNQTLSLFFTVLQDVPVRDLKPAIVKVYDYYETDEFAIAEYNAPCSKDLGNADYKDDDDKGASHHHHHH

Protease Inhibition (% of WT) (MMP8): 20 % of WT
Protease Inhibition (% of WT) (MMP3): 50 % of WT
Protease Inhibition (% of WT) (MMP9): 50 % of WT
Protease Inhibition (% of WT) (MMP1): 40 % of WT
Protease Inhibition (% of WT) (MMP2): 110 % of WT
Protease Inhibition (% of WT) (MMP13): 210 % of WT
Protease Inhibition (% of WT) (ADAMTS4): 50 % of WT
Protease Inhibition (% of WT) (ADAMTS5): 400 % of WT
B2: Variant A2M, bait region SEQ ID NO 100 (other)
chain: SVSGKPQYMVLVPSLLHTETTEKGCVLLSYLNETVTVSASLESVRGNRSLFTDLEAENDVLHCVAFAVPKSSSNEEVMFLTVQVKGPTQEFKKRTTVMVKNEDSLVFVQTDKSIYKPGQTVKFRVVSMDENFHPLNELIPLVYIQDPKGNRIAQWQSFQLEGGLKQFSFPLSSEPFQGSYKVVVQKKSGGRTEHPFTVEEFVLPKFEVQVTVPKIITILEEEMNVSVCGLYTYGKPVPGHVTVSICRKYSDASDCHGEDSQAFCEKFSGQLNSHGCFYQQVKTKVFQLKRKEYEMKLHTEAQIQEEGTVVELTGRQSSEITRTITKLSFVKVDSHFRQGIPFFGQVRLVDGKGVPIPNKVIFIRGNEANYYSNATTDEHGLVQFSINTTNVMGTSLTVRVNYKDRSPCYGYQWVSEEHEEAHHTAYLVFSPSKSFVHLEPMSHELPCGHTQTVQAHYILNGGTLLGLKKLSFYYLIMAKGGIVRTGTHGLLVKQEDMKGHFSISIPVKSDIAPVARLLIYAVLPTGDVIGDSAKYDVENCLANKVDLSFSPSQSLPASHAHLRVTAAPQSVCALRAVDQSVLLMKPDAELSASSVYNLLPEKDLTGFPGPLNDQDDEDCINRHNVYINGITYTPVSSTNEKDMYSFLEDMGLKAFTNSKIRKPKMCPQLEQYEMHGPEGLRVGGEPEGAKGFYESDVMGRGHARLVHVEEPHTKLLRKYFPETWIWDLVVVNSAGVAEVGVTVPDTITEWKAGAFCLSEDAGLGISSTASLRAFQPFFVELTMPYSVIRGEAFTLKATVLNYLPKCIRVSVQLEASPAFLAVPVEKEQAPHCICANGRQTVSWAVTPKSLGNVNFTVSAEALESQELCGTEVPSVPEHGRKDTVIKPLLVEPEGLEKETTFNSLLCPSGGEVSEELSLKLPPNVVEESARASVSVLGDILGSAMQNTQNLLQMPYGCGEQNMVLFAPNIYVLDYLNETQQLTPEIKSKAIGYLNTGYQRQLNYKHYDGSYSTFGERYGRNQGNTWLTAFVLKTFAQARAYIFIDEAHITQALIWLSQRQKDNGCFRSSGSLLNNAIKGGVEDEVTLSAYITIALLEIPLTVTHPVVRNALFCLESAWKTAQEGDHGSHVYTKALLAYAFALAGNQDKRKEVLKSLNEEAVKKDNSVHWERPQKPKAPVGHFYEPQAPSAEVEMTSYVLLAYLTAQPAPTSEDLTSATNIVKWITKQQNAQGGFSSTQDTVVALHALSKYGAATFTRTGKAAQVTIQSSGTFSSKFQVDNNNRLLLQQVSLPELPGEYSMKVTGEGCVYLQTSLKYNILPEKEEFPFALGVQTLPQTCDEPKAHTSFQISLSVSYTGSRSASNMAIVDVKMVSGFIPLKPTVKMLERSNHVSRTEVSSNHVLIYLDKVSNQTLSLFFTVLQDVPVRDLKPAIVKVYDYYETDEFAIAEYNAPCSKDLGNADYKDDDDKGASHHHHHH
